Reference: the supplement of paper PMC7877785
± gives the uncertainty stated by the source.

Assay: self-splicing fitness, log relative to wild type (ln ratio); higher = more splicing; Tetrahymena group I intron in knt gene, E. coli kanamycin selection, DiMSum; sequences stand for … in CUCUCU…GGAGGGAAAAGUUAUCAGGCAUGCACCUGGUAGCUAGUCUUUAAACCAAUAGAUUGCAUCGGUUUAAAAGGCAAGACCGUCAAAUUGCGGGAAAGGGGUCAACAGCCGUUCAGUACCAAGUCUCAGGGGAAACUUUGAGAUGGCCUUGCAAAGGGUAUGGUAAUAAGCUGACGGACAUGGUCCUAACCACGCAGCCAAGUCCUAAGUCAACAGAUCUUCUGUUGAUAUGGAUGCAGUUCACAGACUAAAUGUCGGUCGGGGAAGAUGUAUUCUUCUCAUAAGAUAUAGUCGGACCUCUCCUUAAUGGGAGCUAGCGGAUGAAGUGAUGCAACACUGGAGCCGCUGGGAACUAAUUUGUAUGCGAAAGUAUAUUGAUUAGUUUUGGAGUACUCGUGGUCG
In short: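 Pooled colonies went to amplicon sequencing on an Illumina HiSeq 2500 after six replicate transformations. The plates were LB agar with 100 μg/mL carbenicillin, 50 μM IPTG and 0.2% rhamnose, with or without 25 μg/mL kanamycin, incubated overnight at 37°C or 30°C. The E. coli BL21(DE3) library had all eight P1ex-region intron nucleotides randomised, the intron placed in the knt kanamycin-resistance gene on pET-22b(+). DiMSum fitness is the error-weighted combination of replicate fold changes, kanamycin against none, normalised to wild type.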

Sequence | self-splicing fitness (ln) (30 °C) | self-splicing fitness (ln) (37 °C)
GGACAGCAAUAUUACGGUUA | -0.28 ± 0.097 | 0.525 ± 0.11
CUCUAGCAAUAUUACGUCUU | -2.57 ± 0.12 | -3.16 ± 0.16
CAAGAGCAAUAUUACGAUCA | -1.72 ± 0.16 | -2.02 ± 0.24
UGCCAGCAAUAUUACGCGAA | -1.33 ± 0.11 | 0.357 ± 0.11
AGAUAGCAAUAUUACGGUCC | -1.27 ± 0.14 | -1.03 ± 0.18
AAUCAGCAAUAUUACGAUAC | -0.844 ± 0.081 | -0.307 ± 0.11
GGGUAGCAAUAUUACGGGCA | -0.435 ± 0.25 | -0.58 ± 0.26
UUUUAGCAAUAUUACGUCGA | -0.866 ± 0.12 | 0.0877 ± 0.14
UGGGAGCAAUAUUACGUAAG | -0.459 ± 0.15 | -1.12 ± 0.2
AAGCAGCAAUAUUACGGCGU | -0.0119 ± 0.067 | 0.201 ± 0.079
AGCGAGCAAUAUUACGAGAG | -3.19 ± 0.32 | -2.94 ± 0.32
GCGAAGCAAUAUUACGGCGA | -0.0437 ± 0.14 | 0.0298 ± 0.15
CCGCAGCAAUAUUACGGGAC | -4.12 ± 0.46 | -2.65 ± 0.29
GCGAAGCAAUAUUACGAAGC | -2.71 ± 0.39 | -2.49 ± 0.36
AGCUAGCAAUAUUACGUGCU | -3.87 ± 0.35 | -2.44 ± 0.23
CACGAGCAAUAUUACGGGCU | -4.17 ± 0.22 | -3.5 ± 0.46
AACAAGCAAUAUUACGCAGU | -3.43 ± 0.19 | -1.93 ± 0.16
UAUAAGCAAUAUUACGACGG | -0.907 ± 0.12 | 0.474 ± 0.18
CGGCAGCAAUAUUACGUAAA | -2.71 ± 0.12 | -1.84 ± 0.12
UUGGAGCAAUAUUACGCGAU | -2.54 ± 0.33 | -0.423 ± 0.35
AAUUAGCAAUAUUACGUAGC | -3.24 ± 0.25 | -1.08 ± 0.32
UCCUAGCAAUAUUACGCUCG | -3.13 ± 0.21 | –
AACUAGCAAUAUUACGGCUG | -1.02 ± 0.098 | -0.0943 ± 0.15
AACGAGCAAUAUUACGUUAU | -3.69 ± 0.16 | -1.52 ± 0.11
ACGUAGCAAUAUUACGCGUA | -2.22 ± 0.17 | -1.74 ± 0.16
UUACAGCAAUAUUACGUCAC | – | -1.8 ± 0.23

Sequence | self-splicing fitness (ln) (30 °C) | self-splicing fitness (ln) (37 °C)
UUUUAGCAAUAUUACGCAAA | -1.98 ± 0.49 | -1.47 ± 0.36
AGCAAGCAAUAUUACGCAUG | -3.32 ± 0.16 | -2.74 ± 0.2
UCACAGCAAUAUUACGCGCA | -0.0823 ± 0.068 | 0.0608 ± 0.075
ACAAAGCAAUAUUACGUACG | -1.84 ± 0.068 | -0.615 ± 0.087
CCUCAGCAAUAUUACGGUGA | -3.68 ± 0.28 | -2.28 ± 0.2
GGUUAGCAAUAUUACGCUGC | -1.38 ± 0.26 | –
AUAAAGCAAUAUUACGUCUA | 0.308 ± 0.078 | 0.497 ± 0.099
CGCCAGCAAUAUUACGAACC | -2.23 ± 0.22 | -2.02 ± 0.43
AUAAAGCAAUAUUACGCUGA | -1.27 ± 0.082 | -0.907 ± 0.15
CGUAAGCAAUAUUACGAGCC | – | -1.87 ± 0.22
AAGGAGCAAUAUUACGUUGC | -4.58 ± 0.42 | -1.71 ± 0.23
CUGUAGCAAUAUUACGAAAU | -3.22 ± 0.23 | -2.54 ± 0.26
ACCGAGCAAUAUUACGUUUA | -3.4 ± 0.27 | -2.39 ± 0.18
GAAAAGCAAUAUUACGGAUU | -2.03 ± 0.09 | -1.03 ± 0.11
UCCCAGCAAUAUUACGAACA | -1.51 ± 0.13 | -0.139 ± 0.12
CUGGAGCAAUAUUACGAUUU | -4.07 ± 0.46 | -2.01 ± 0.34
UAUCAGCAAUAUUACGAUUU | 0.142 ± 0.055 | 0.207 ± 0.07
CGUUAGCAAUAUUACGGUAC | -2.98 ± 0.24 | -2.96 ± 0.38
GGCAAGCAAUAUUACGUUUA | -1.29 ± 0.1 | -0.0113 ± 0.11
GAUUAGCAAUAUUACGAACA | -0.848 ± 0.21 | 0.129 ± 0.17
UCUUAGCAAUAUUACGGUUC | -3.68 ± 0.28 | -2.29 ± 0.23
UUGCAGCAAUAUUACGCAGU | – | -2.71 ± 0.39
CCUUAGCAAUAUUACGUACA | -3.88 ± 0.42 | -2.22 ± 0.3
CUAAAGCAAUAUUACGAUUU | -4.23 ± 0.28 | -2.46 ± 0.32
UGCAAGCAAUAUUACGACCA | -0.338 ± 0.37 | -0.273 ± 0.3
ACCCAGCAAUAUUACGAGCC | -3.18 ± 0.15 | -1.54 ± 0.14

Sequence | self-splicing fitness (ln) (30 °C) | self-splicing fitness (ln) (37 °C)
GAACAGCAAUAUUACGUGUG | -1.35 ± 0.054 | -0.967 ± 0.069
GGUCAGCAAUAUUACGUAAU | -0.42 ± 0.11 | 0.68 ± 0.14
GGGGAGCAAUAUUACGGACG | -2.73 ± 0.32 | -1.21 ± 0.28
CCCCAGCAAUAUUACGGGCG | -3.69 ± 0.15 | -1.94 ± 0.11
CAGUAGCAAUAUUACGUUAU | -2.82 ± 0.24 | -1.37 ± 0.2
GCUGAGCAAUAUUACGCGAA | – | -2.91 ± 0.37
AUCUAGCAAUAUUACGCAUU | -1.48 ± 0.1 | -0.414 ± 0.1
CGUUAGCAAUAUUACGACAG | 0.473 ± 0.14 | -0.134 ± 0.15
AACAAGCAAUAUUACGGAGA | -3.58 ± 0.23 | -3.19 ± 0.24
CACUAGCAAUAUUACGUGAG | -3.33 ± 0.14 | -2.91 ± 0.23
UCCAAGCAAUAUUACGCUUG | -3.72 ± 0.17 | -2.11 ± 0.28
UCUCAGCAAUAUUACGUUUU | -3.4 ± 0.15 | -3.25 ± 0.21
CUUGAGCAAUAUUACGACUU | -2.53 ± 0.37 | -3.56 ± 0.43
GGCCAGCAAUAUUACGCAAA | -3.09 ± 0.24 | -1.02 ± 0.12
CGUCAGCAAUAUUACGAACA | -0.807 ± 0.078 | 0.843 ± 0.12
UCGAAGCAAUAUUACGAGAG | -3.06 ± 0.43 | -1.91 ± 0.25
GUAUAGCAAUAUUACGUGAC | -2.65 ± 0.13 | -1.65 ± 0.14
CGCAAGCAAUAUUACGUGCA | -0.273 ± 0.064 | -0.135 ± 0.075
GAGAAGCAAUAUUACGCGGU | -2.38 ± 0.16 | -0.663 ± 0.16
GUAGAGCAAUAUUACGAUCC | -1.22 ± 0.21 | -0.765 ± 0.28
AAGCAGCAAUAUUACGCGCA | -1.73 ± 0.14 | -0.501 ± 0.2
GUGAAGCAAUAUUACGAUUC | -0.545 ± 0.098 | 0.0735 ± 0.17
CGCCAGCAAUAUUACGGCAU | -1.25 ± 0.081 | -0.458 ± 0.088
AGUCAGCAAUAUUACGAAGC | -3.56 ± 0.18 | -2.03 ± 0.17
CUAGAGCAAUAUUACGGUCA | -3.55 ± 0.23 | -2.47 ± 0.44
